For two substances, Kd and stoichiometry N results are on record in publication PMC8211105.

The target of assay [1] is MxiN with an N-terminal His6-tag, purified (S. flexneri) (UniProt Q6XVX6). The assay is described as follows: BLI; His6-MxiN immobilised on Ni-NTA biosensor tips; untagged Spa33 at 400, 200, 100, 50, 25 and 12.5 µg/mL; PBS with 10% glycerol, 0.01% BSA, 0.002% Tween 20; 25°C; Octet RED96; 1:1 Langmuir model; KD from the equilibrium response (Req). A general note: Biolayer interferometry detects binding as a change in optical thickness at a sensor tip.

In assay [2] the target is Spa33^C, purified recombinant (S. flexneri). As to the kind of experiment: SEC; Spa33^C alone expressed in E. coli and purified by IMAC and Superdex 200 (20 mM Tris, 200 mM NaCl, pH 7.5); apparent homodimer. For orientation: Size exclusion chromatography separates by hydrodynamic size, large species first.

Usually Kd stands for the equilibrium constant for the complex coming apart. The low end stands for higher affinity, the high end for lower affinity. In assay [1], “Wild-type Spa33 heterotrimer (one Spa33^FL with two Spa33^C), purified, untagged (from UniProt P0A1K9 1-293) (complex)” yielded a Kd of 550 nM.

By stoichiometry N is commonly meant the number of molecules, sites or subunits per partner or assembly. Regarding “Spa33^C, purified recombinant (domain or fragment)”, the stoichiometry N in assay [2] amounted to 2.
